Experimental findings from patent US20220048996A1 (F STAR BETA, published 2022) are described below.

For orientation: Kd means the equilibrium constant for the complex coming apart. A high value points to lower affinity.

The experiment deals with T1, cOX40-mFc (cynomolgus).
T1 construct: Dimeric; also called cyno OX40-mFc
T1 chain: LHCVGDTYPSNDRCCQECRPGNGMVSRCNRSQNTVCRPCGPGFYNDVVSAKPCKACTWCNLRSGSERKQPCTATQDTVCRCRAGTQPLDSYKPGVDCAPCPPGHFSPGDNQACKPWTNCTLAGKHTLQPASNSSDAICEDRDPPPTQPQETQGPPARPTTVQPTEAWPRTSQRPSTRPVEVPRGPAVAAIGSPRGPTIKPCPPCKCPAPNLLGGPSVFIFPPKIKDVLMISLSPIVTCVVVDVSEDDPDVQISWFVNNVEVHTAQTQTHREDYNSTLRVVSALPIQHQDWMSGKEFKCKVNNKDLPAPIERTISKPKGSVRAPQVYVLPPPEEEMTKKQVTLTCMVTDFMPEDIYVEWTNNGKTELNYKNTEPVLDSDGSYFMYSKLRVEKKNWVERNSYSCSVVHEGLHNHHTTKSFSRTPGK
Description: SPR, antibody captured via anti-human Fab, dimeric antigen flowed, 1:1 fit.

B1: FS20-22-49AA/FS30-10-16 (bispecific antibody, human IgG1, kappa, L234A L235A)
heavy: EVQLLESGGGLVQPGGSLRLSCAASGFTFSSYDMSWVRQAPGKGLEWVSDIDPTGSKTDYADSVKGRFTISRDNSKNTLYLQMNSLRAEDTAVYYCARDLLVYGFDYWGQGTLVTVSSASTKGPSVFPLAPSSKSTSGGTAALGCLVKDYFPEPVTVSWNSGALTSGVHTFPAVLQSSGLYSLSSVVTVPSSSLGTQTYICNVNHKPSNTKVDKKVEPKSCDKTHTCPPCPAPEAAGGPSVFLFPPKPKDTLMISRTPEVTCVVVDVSHEDPEVKFNWYVDGVEVHNAKTKPREEQYNSTYRVVSVLTVLHQDWLNGKEYKCKVSNKALPAPIEKTISKAKGQPREPQVYTLPPSRDEYWDQEVSLTCLVKGFYPSDIAVEWESNGDEQFAYKTTPPVLDSDGSFFLYSKLTVDQYRWNPADYFSCSVMHEALHNHYTQKSLSLSPG
light: EIVLTQSPGTLSLSPGERATLSCRASQSVSSSYLAWYQQKPGQAPRLLIYGASSRATGIPDRFSGSGSGTDFTLTISRLEPEDFAVYYCQQSYSYPVTFGQGTKVEIKRTVAAPSVFIFPPSDEQLKSGTASVVCLLNNFYPREAKVQWKVDNALQSGNSQESVTEQDSKDSTYSLSSTLTLSKADYEKHKVYACEVTHQGLSSPVTKSFNRGEC
notes: IgG1 with LALA; also called OX40/CD137 mAb^2; copies: 2 + 2
Regarding B1, the Kd came to 861 pM.
